Values quoted from earlier work in article PMC3433420.
Where two headings read alike, the source gives them in different places.

What was measured:
Details in all cases: cited from earlier work
[1] = molecular target: NCK2 (Homo sapiens) (UniProt O43639)
[2] = molecular target: TENC1 (Homo sapiens) (UniProt Q63HR2)
[3] = molecular target: SHB (Homo sapiens) (UniProt Q15464)
[4] = molecular target: SHE (Homo sapiens) (UniProt Q5VZ18)
[5] = molecular target: PIK3R1-NC (Homo sapiens) (UniProt P27986)
Chain of PIK3R1-NC (Homo sapiens) (P27986 328-723): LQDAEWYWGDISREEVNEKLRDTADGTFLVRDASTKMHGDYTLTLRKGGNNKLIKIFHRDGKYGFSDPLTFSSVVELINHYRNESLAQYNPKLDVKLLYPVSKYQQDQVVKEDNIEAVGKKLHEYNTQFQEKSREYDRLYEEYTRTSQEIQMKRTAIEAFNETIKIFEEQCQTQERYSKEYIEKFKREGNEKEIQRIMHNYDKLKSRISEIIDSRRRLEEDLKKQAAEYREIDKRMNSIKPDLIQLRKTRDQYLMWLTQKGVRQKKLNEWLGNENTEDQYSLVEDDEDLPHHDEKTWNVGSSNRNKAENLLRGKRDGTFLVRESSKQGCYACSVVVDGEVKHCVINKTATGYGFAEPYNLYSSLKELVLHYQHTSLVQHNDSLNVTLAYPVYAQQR

[6] = molecular target: ITK (Homo sapiens) (UniProt Q08881)
Chain of ITK (Homo sapiens) (Q08881 234-343): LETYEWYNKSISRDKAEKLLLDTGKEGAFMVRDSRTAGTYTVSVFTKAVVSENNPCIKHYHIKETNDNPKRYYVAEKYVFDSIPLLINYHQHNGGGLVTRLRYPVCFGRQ

[7] = molecular target: SH2D3C (Homo sapiens) (UniProt Q8N5H7)
Chain of SH2D3C (Homo sapiens) (Q8N5H7 215-324): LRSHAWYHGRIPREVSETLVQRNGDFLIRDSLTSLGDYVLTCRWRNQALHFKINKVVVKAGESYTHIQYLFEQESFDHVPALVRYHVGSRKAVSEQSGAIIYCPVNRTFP

[8] = molecular target: SYK-NC (Homo sapiens) (UniProt P43405)
[9] = molecular target: SH2D1B (Homo sapiens) (UniProt O14796)
Chain of SH2D1B (Homo sapiens) (O14796 1-106): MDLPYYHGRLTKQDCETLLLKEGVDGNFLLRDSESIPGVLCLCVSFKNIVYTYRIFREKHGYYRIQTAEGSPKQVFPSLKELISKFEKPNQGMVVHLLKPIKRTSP

[10] = molecular target: ABL2 (Homo sapiens) (UniProt P42684)
Chain of ABL2 (Homo sapiens) (P42684 168-268): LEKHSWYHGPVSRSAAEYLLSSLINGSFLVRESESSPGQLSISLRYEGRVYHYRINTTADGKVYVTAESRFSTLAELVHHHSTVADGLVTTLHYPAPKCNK

[11] = molecular target: PIK3R1-C (Homo sapiens) (UniProt P27986)
Chain of PIK3R1-C (Homo sapiens) (P27986 328-723): as the sequence (P27986 328-723) above

[12] = molecular target: PIK3R3-NC (Homo sapiens) (UniProt Q92569)
[13] = molecular target: TNS3 (Homo sapiens) (UniProt Q68CZ2)
Chain of TNS3 (Homo sapiens) (Q68CZ2 1167-1287): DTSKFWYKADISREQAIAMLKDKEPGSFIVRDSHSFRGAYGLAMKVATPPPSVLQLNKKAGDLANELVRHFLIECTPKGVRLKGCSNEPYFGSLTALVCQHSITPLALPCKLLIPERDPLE

[14] = molecular target: VAV3 (Homo sapiens) (UniProt Q9UKW4)
Chain of VAV3 (Homo sapiens) (Q9UKW4 667-771): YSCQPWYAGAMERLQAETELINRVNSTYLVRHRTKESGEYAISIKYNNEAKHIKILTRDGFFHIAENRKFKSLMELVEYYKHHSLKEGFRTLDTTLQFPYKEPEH

[15] = molecular target: RASA1-NC (Homo sapiens) (UniProt P20936)
Chain of RASA1-NC (Homo sapiens) (P20936 176-446): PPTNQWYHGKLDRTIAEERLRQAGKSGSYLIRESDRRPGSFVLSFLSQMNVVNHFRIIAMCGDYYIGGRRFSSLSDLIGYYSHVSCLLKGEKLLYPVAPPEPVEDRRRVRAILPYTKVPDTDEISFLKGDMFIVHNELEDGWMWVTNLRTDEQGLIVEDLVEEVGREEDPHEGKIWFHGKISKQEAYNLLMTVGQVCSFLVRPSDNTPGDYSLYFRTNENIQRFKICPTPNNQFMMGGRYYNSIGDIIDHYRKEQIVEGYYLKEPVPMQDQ

[16] = molecular target: SHF (Homo sapiens) (UniProt Q7M4L6)
Chain of SHF (Homo sapiens) (Q7M4L6 318-423): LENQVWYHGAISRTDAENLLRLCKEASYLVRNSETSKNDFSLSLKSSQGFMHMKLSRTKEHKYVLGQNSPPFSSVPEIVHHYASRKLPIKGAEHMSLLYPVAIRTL

[17] = molecular target: YES1 (Homo sapiens) (UniProt P07947)
Chain of YES1 (Homo sapiens) (P07947 153-260): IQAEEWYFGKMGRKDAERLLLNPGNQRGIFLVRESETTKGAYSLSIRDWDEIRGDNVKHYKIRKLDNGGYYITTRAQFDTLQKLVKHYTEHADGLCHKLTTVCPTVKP

[18] = molecular target: SHC1-PTB (Homo sapiens) (UniProt P29353)
Chain of SHC1-PTB (Homo sapiens) (P29353 483-583): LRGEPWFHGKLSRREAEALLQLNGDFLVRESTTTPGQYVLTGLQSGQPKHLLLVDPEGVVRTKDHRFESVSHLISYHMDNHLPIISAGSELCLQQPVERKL

[19] = molecular target: SRC (Homo sapiens) (UniProt P12931)
[20] = molecular target: GRB7 (Homo sapiens) (UniProt Q14451)
Chain of GRB7 (Homo sapiens) (Q14451 426-532): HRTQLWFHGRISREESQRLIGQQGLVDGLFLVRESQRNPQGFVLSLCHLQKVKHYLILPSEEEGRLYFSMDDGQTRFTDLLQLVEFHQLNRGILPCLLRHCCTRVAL

[21] = molecular target: VAV1 (Homo sapiens) (UniProt P15498)
Chain of VAV1 (Homo sapiens) (P15498 666-770): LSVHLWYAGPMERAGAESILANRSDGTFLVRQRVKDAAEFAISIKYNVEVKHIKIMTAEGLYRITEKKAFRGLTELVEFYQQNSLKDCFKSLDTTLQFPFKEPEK

[22] = molecular target: VAV2 (Homo sapiens) (UniProt P52735)
Chain of VAV2 (Homo sapiens) (P52735 668-772): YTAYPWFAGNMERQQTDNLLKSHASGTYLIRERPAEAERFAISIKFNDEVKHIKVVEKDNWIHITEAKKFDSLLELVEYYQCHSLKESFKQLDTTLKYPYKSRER

[23] = molecular target: GRB10 (Homo sapiens) (UniProt Q13322)
Chain of GRB10 (Homo sapiens) (Q13322 488-579): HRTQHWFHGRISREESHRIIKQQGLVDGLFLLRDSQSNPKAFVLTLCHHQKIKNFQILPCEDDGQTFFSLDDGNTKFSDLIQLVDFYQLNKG

[24] = molecular target: RASA1-C (Homo sapiens) (UniProt P20936)
Chain of RASA1-C (Homo sapiens) (P20936 176-446): as the sequence (P20936 176-446) above

[25] = molecular target: ABL2 (Homo sapiens) (UniProt P42684); remark: listed apart in the source
[26] = molecular target: PIK3R2-NC (Homo sapiens) (UniProt O00459)
Chain of PIK3R2-NC (Homo sapiens) (O00459 325-721): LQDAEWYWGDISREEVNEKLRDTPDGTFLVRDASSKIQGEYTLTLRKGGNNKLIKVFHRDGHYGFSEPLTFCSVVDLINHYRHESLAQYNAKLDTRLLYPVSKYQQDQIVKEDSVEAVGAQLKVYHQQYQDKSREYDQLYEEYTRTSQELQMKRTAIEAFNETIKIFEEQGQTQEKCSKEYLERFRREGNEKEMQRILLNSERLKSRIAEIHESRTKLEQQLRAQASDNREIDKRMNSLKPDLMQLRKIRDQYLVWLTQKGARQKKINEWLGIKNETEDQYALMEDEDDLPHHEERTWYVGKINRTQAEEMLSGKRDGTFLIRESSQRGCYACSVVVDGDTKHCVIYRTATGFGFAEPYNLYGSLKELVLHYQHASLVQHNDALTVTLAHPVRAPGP

[27] = molecular target: PIK3R1-NC (Homo sapiens) (UniProt P27986); remark: listed apart in the source
[28] = molecular target: PIK3R3-NC (Homo sapiens) (UniProt Q92569); remark: listed apart in the source
[29] = molecular target: PIK3R1-N (Homo sapiens) (UniProt P27986)
Chain of PIK3R1-N (Homo sapiens) (P27986 328-723): as the sequence (P27986 328-723) above

[30] = molecular target: PIK3R2-N (Homo sapiens) (UniProt O00459)
Chain of PIK3R2-N (Homo sapiens) (O00459 325-721): as the sequence (O00459 325-721) above

[31] = molecular target: PIK3R3-N (Homo sapiens) (UniProt Q92569)
[32] = molecular target: RASA1-NC (Homo sapiens) (UniProt P20936); remark: listed apart in the source
[33] = molecular target: PLCG2-NC (Homo sapiens) (UniProt P16885)
Chain of PLCG2-NC (Homo sapiens) (P16885 527-740): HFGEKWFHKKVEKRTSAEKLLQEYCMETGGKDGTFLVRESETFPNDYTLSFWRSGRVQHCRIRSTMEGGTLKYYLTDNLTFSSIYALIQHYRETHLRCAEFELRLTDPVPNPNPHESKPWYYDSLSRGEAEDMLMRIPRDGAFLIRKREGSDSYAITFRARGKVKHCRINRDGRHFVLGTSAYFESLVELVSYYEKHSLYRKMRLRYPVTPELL

[34] = molecular target: ABL2 (Homo sapiens) (UniProt P42684); remark: listed apart in the source
[35] = molecular target: RASA1-N (Homo sapiens) (UniProt P20936)
Chain of RASA1-N (Homo sapiens) (P20936 176-446): as the sequence (P20936 176-446) above

[36] = molecular target: SLA (Homo sapiens) (UniProt Q13239)
Chain of SLA (Homo sapiens) (Q13239 79-180): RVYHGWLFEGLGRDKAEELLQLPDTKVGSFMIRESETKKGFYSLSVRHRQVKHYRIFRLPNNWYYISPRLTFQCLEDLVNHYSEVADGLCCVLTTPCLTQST

[37] = molecular target: PIK3R3-NC (Homo sapiens) (UniProt Q92569); remark: listed apart in the source
[38] = molecular target: PIK3R3-C (Homo sapiens) (UniProt Q92569)
[39] = molecular target: PIK3R3-N (Homo sapiens) (UniProt Q92569); remark: listed apart in the source
[40] = molecular target: PIK3R1-NC (Homo sapiens) (UniProt P27986); remark: listed apart in the source
[41] = molecular target: RASA1-N (Homo sapiens) (UniProt P20936); remark: listed apart in the source
[42] = molecular target: ABL2 (Homo sapiens) (UniProt P42684); remark: listed apart in the source
[43] = molecular target: SYK-NC (Homo sapiens) (UniProt P43405); remark: listed apart in the source
[44] = molecular target: VAV1 (Homo sapiens) (UniProt P15498); remark: listed apart in the source
[45] = molecular target: PIK3R1-N (Homo sapiens) (UniProt P27986); remark: listed apart in the source
[46] = molecular target: PIK3R2-NC (Homo sapiens) (UniProt O00459); remark: listed apart in the source
[47] = molecular target: PIK3R3-NC (Homo sapiens) (UniProt Q92569); remark: listed apart in the source
[48] = molecular target: TENC1 (Homo sapiens) (UniProt Q63HR2); remark: listed apart in the source
[49] = molecular target: SHC1-PTB (Homo sapiens) (UniProt P29353); remark: listed apart in the source
[50] = molecular target: ABL2 (Homo sapiens) (UniProt P42684); remark: listed apart in the source
[51] = molecular target: YES1 (Homo sapiens) (UniProt P07947); remark: listed apart in the source
[52] = molecular target: BLK (Homo sapiens) (UniProt P51451)
Chain of BLK (Homo sapiens) (P51451 119-225): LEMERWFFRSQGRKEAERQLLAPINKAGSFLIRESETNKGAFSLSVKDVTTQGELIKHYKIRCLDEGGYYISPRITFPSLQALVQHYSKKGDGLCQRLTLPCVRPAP

[53] = molecular target: RASA1-NC (Homo sapiens) (UniProt P20936); remark: listed apart in the source
[54] = molecular target: PLCG2-NC (Homo sapiens) (UniProt P16885); remark: listed apart in the source
[55] = molecular target: PLCG2-N (Homo sapiens) (UniProt P16885)
Chain of PLCG2-N (Homo sapiens) (P16885 527-740): as the sequence (P16885 527-740) above

[56] = molecular target: GRB7 (Homo sapiens) (UniProt Q14451); remark: listed apart in the source
[57] = molecular target: SHB (Homo sapiens) (UniProt Q15464); remark: listed apart in the source
[58] = molecular target: YES1 (Homo sapiens) (UniProt P07947); remark: listed apart in the source
[59] = molecular target: ABL2 (Homo sapiens) (UniProt P42684); remark: listed apart in the source

Chain of TENC1 (Homo sapiens) (Q63HR2 1135-1252): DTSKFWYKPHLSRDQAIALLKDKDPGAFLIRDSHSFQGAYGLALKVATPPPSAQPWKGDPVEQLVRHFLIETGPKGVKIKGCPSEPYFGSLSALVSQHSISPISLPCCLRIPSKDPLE
Chain of SHB (Homo sapiens) (Q15464 405-509): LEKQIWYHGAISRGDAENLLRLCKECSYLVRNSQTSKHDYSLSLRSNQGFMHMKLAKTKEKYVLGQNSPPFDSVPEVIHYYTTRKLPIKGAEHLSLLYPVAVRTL
Chain of SHE (Homo sapiens) (Q5VZ18 390-495): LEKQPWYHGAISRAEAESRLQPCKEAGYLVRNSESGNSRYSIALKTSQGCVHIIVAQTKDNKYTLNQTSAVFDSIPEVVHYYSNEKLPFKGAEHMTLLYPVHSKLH
Chain of NCK2 (Homo sapiens) (O43639 280-380): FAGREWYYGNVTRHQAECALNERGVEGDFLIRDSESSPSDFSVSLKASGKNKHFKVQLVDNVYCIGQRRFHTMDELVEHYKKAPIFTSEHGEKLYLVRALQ

## …pYLLNWCVQd
[1]
  apparent Kd (screen): 195 nM
[2]
  apparent Kd (screen): 1140 nM
[3]
  apparent Kd (screen): 276 nM
[4]
  apparent Kd (screen): 1380 nM
[5]
  apparent Kd (screen): 1820 nM
[6]
  apparent Kd (screen): 310 nM
[7]
  apparent Kd (screen): 52 nM
[8]
  apparent Kd (screen): 240 nM
[9]
  apparent Kd (screen): 1600 nM
[10]
  apparent Kd (screen): 201 nM
[11]
  apparent Kd (screen): 1850 nM
[12]
  apparent Kd (screen): 1870 nM
[13]
  apparent Kd (screen): 1890 nM
[14]
  apparent Kd (screen): 960 nM
[15]
  apparent Kd (screen): 155 nM
[16]
  apparent Kd (screen): 1060 nM
[17]
  apparent Kd (screen): 22 nM
[18]
  apparent Kd (screen): 1500 nM
[19]
  apparent Kd (screen): 84 nM
[20]
  apparent Kd (screen): 456 nM
[21]
  apparent Kd (screen): 373 nM
[22]
  apparent Kd (screen): 472 nM
[23]
  apparent Kd (screen): 353 nM
[24]
  apparent Kd (screen): 1950 nM

## …pYTPMSGNQd
[25]
  apparent Kd (screen): 659 nM
[26]
  apparent Kd (screen): 461 nM
[27]
  apparent Kd (screen): 1440 nM
[28]
  apparent Kd (screen): 576 nM
[29]
  apparent Kd (screen): 541 nM
[30]
  apparent Kd (screen): 201 nM
[31]
  apparent Kd (screen): 888 nM

## …pYMDVGSDL
[32]
  apparent Kd (screen): 2000 nM
[33]
  apparent Kd (screen): 2000 nM
[34]
  apparent Kd (screen): 1130 nM
[35]
  apparent Kd (screen): 2000 nM
[36]
  apparent Kd (screen): 2000 nM
[37]
  apparent Kd (screen): 1510 nM

## …pYEYMDVGS
[38]
  apparent Kd (screen): 270 nM
[39]
  apparent Kd (screen): 553 nM
[40]
  apparent Kd (screen): 375 nM
[41]
  apparent Kd (screen): 671 nM
[42]
  apparent Kd (screen): 158 nM
[43]
  apparent Kd (screen): 851 nM
[44]
  apparent Kd (screen): 2000 nM
[45]
  apparent Kd (screen): 1250 nM
[46]
  apparent Kd (screen): 385 nM
[47]
  apparent Kd (screen): 97 nM
[48]
  apparent Kd (screen): 903 nM

## …pYWNHSLPPd
[49]
  apparent Kd (screen): 509 nM
[50]
  apparent Kd (screen): 34 nM

## …pYHADGGKVd
[51]
  apparent Kd (screen): 1890 nM
[52]
  apparent Kd (screen): 718 nM
[53]
  apparent Kd (screen): 1400 nM
[54]
  apparent Kd (screen): 1100 nM
[55]
  apparent Kd (screen): 647 nM
[56]
  apparent Kd (screen): 1200 nM

## …pYSSDPTGAd
[57]
  apparent Kd (screen): 862 nM
[58]
  apparent Kd (screen): 295 nM
[59]
  apparent Kd (screen): 2000 nM
